Reference: patent US20230250135A1

How the values were obtained:
Settings in all cases: remark: other sources report otherwise
[1] = biological target: UFV161333 (influenza A virus A/Hong Kong/1/68 (H3N2)); test: Binding-AlphaLISA, Expi293F supernatant, normalized to UFV161686
[2] = biological target: UFV161453 (influenza A virus A/Hong Kong/1/68 (H3N2))
[3] = biological target: UFV161715 (influenza A virus A/Hong Kong/1/68 (H3N2)); test: Binding-AlphaLISA, Expi293F supernatant, normalized to UFV161333
[4] = biological target: UFV161721 (influenza A virus A/Hong Kong/1/68 (H3N2)); test: as above

B1: CR9114 (antibody, V domains shown)
VH: QVQLVQSGAEVKKPGSSVKVSCKSSGGTSNNYAISWVRQAPGQGLDWMGGISPIFGSTAYAQKFQGRVTISADIFSNTAYMELNSLTSEDTAVYFCARHGNYYYYSGMDVWGQGTTVTVSS
VL: SYVLTQPPAVSGTPGQRVTISCSGSDSNIGRRSVNWYQQFPGTAPKLLIYSNDQRPSVVPDRFSGSKSGTSASLAISGLQSEDEAEYYCAAWDDSLKGAVFGGGTQLTVL
B1 showed a fold increase in binding relative to reference UFV161686 [1] of 5 fold, a binding relative to reference UFV161454 [2] of 61% and a binding relative to reference UFV161333 [3] of 145%. The binding relative to reference UFV161333 [4] was 145%.
